Numbering of substitutions follows the chain as printed. Names and notes keep the numbering of the source.

The labels stand for the following.
T1: EsCas13d, nuclease-dead (Eubacterium siraeum, UniProt B0MS50, R295A;H300A;R849A;H854A)
T1 sequence: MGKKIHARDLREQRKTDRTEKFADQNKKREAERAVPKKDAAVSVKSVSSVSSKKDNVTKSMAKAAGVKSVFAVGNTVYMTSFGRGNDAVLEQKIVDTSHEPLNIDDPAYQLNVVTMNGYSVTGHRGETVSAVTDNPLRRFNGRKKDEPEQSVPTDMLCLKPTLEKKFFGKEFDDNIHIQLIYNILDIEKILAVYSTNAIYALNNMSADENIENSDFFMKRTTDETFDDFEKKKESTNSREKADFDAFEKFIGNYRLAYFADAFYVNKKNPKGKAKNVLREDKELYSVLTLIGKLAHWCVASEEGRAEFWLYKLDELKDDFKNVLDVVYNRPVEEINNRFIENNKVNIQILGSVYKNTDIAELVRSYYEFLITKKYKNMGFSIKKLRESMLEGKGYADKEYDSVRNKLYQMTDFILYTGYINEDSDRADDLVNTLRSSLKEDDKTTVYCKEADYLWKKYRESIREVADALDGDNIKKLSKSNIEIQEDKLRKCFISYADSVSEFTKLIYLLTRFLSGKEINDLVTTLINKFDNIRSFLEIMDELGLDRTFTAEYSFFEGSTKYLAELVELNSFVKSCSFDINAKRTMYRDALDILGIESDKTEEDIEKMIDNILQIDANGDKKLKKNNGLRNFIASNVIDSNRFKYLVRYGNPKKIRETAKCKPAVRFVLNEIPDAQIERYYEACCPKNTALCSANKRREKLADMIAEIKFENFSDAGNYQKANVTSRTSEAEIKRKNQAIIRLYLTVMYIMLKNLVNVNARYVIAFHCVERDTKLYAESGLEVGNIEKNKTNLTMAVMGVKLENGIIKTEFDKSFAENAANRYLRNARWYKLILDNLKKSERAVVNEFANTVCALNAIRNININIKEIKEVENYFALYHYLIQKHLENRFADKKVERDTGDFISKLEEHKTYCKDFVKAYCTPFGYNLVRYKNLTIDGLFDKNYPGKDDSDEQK

B1: target 1 insU 3' of 15,insG 3' of 8 (mixed)
RNA 1: CACCCGUGCAAAAAUGCAGGGGUCUAAAACUGAGCGGAUAACCUCUCUAUGG
RNA 2: GGGAAUGGAUCCACAUCUACGAAUUCGUACCAUAGAGUAGGUUAUGCCGCUCACCGAGAUCGGAAGAGCACACGU
B2: target 1 del2,del17 (mixed)
RNA 1: B1 RNA 1
RNA 2: GGGAAUGGAUCCACAUCUACGAAUUCGUACCAUAAGAGGUUAUCCGCUACCGAGAUCGGAAGAGCACACGU
B3: target 1 C4U,A9C (mixed)
RNA 1: B1 RNA 1
RNA 2: GGGAAUGGAUCCACAUCUACGAAUUCGUACCAUAGAGAGGUUCUCCGUUCACCGAGAUCGGAAGAGCACACGU
B4: target 1 A1U,U3C (mixed)
RNA 1: B1 RNA 1
RNA 2: B3 RNA 2 with C43A, U48C, U49C, A51U
B5: target 1 insC 3' of 19,insU 3' of 2 (mixed)
RNA 1: B1 RNA 1
RNA 2: GGGAAUGGAUCCACAUCUACGAAUUCGUACCAUCAGAGAGGUUAUCCGCUCUACCGAGAUCGGAAGAGCACACGU
B6: target 1 insA 3' of 22,insC 3' of 13 (mixed)
RNA 1: B1 RNA 1
RNA 2: GGGAAUGGAUCCACAUCUACGAAUUCGUACACAUAGAGAGCGUUAUCCGCUCACCGAGAUCGGAAGAGCACACGU
B7: target 1 A1C,G13C (mixed)
RNA 1: B1 RNA 1
RNA 2: B3 RNA 2 with G39C, C43A, U48C, A51C
B8: target 1 C22U (mixed)
RNA 1: B1 RNA 1
RNA 2: B3 RNA 2 with C30U, C43A, U48C
B9: target 1 A1U,U11C (mixed)
RNA 1: B1 RNA 1
RNA 2: B3 RNA 2 with U41C, C43A, U48C, A51U
B10: target 1 del1,del4 (mixed)
RNA 1: B1 RNA 1
RNA 2: GGGAAUGGAUCCACAUCUACGAAUUCGUACCAUAGAGAGGUUAUCCGUCCCGAGAUCGGAAGAGCACACGU
B11: target 1 U3A (mixed)
RNA 1: B1 RNA 1
RNA 2: B3 RNA 2 with C43A, U48C, U49A
B12: target 1 A1U,C22U (mixed)
RNA 1: B1 RNA 1
RNA 2: B3 RNA 2 with C30U, C43A, U48C, A51U
B13: target 1 U11C (mixed)
RNA 1: B1 RNA 1
RNA 2: B3 RNA 2 with U41C, C43A, U48C
B14: target 1 del2,del4 (mixed)
RNA 1: B1 RNA 1
RNA 2: B10 RNA 2 with C49A
B15: target 1 U8C,A9U (mixed)
RNA 1: B1 RNA 1
RNA 2: B3 RNA 2 with C43U, U44C, U48C
B16: target 1 U8G,G13A (mixed)
RNA 1: B1 RNA 1
RNA 2: B3 RNA 2 with G39A, C43A, U44G, U48C
B17: target 1 insG 3' of 16,insU 3' of 1 (mixed)
RNA 1: B1 RNA 1
RNA 2: B5 RNA 2 with C34A, A35G, G36A, A37G, U52A, A53U
B18: target 1 C4G,A18G (mixed)
RNA 1: B1 RNA 1
RNA 2: B3 RNA 2 with A34G, C43A, U48G
B19: target 1 C4U,U10G (mixed)
RNA 1: B1 RNA 1
RNA 2: B3 RNA 2 with U42G, C43A
B20: target 1 C2G,C6A (mixed)
RNA 1: B1 RNA 1
RNA 2: B3 RNA 2 with C43A, C46A, U48C, C50G
B21: target 1 insG 3' of 8,insA 3' of 4 (mixed)
RNA 1: B1 RNA 1
RNA 2: GGGAAUGGAUCCACAUCUACGAAUUCGUACCAUAGAGAGGUUAUGCCGCAUCACCGAGAUCGGAAGAGCACACGU
B22: target 1 insU 3' of 21,insG 3' of 8 (mixed)
RNA 1: B1 RNA 1
RNA 2: B6 RNA 2 with A31C, C32U, C41G, G42U, U44A, A45U, U46G
B23: target 1 U8G,A20C (mixed)
RNA 1: B1 RNA 1
RNA 2: B3 RNA 2 with A32C, C43A, U44G, U48C
B24: target 1 insA 3' of 11,insU 3' of 6 (mixed)
RNA 1: B1 RNA 1
RNA 2: B1 RNA 2 with U38A, A39G, G41U, U42A, G46C, C48U
B25: target 1 A1C,U3A (mixed)
RNA 1: B1 RNA 1
RNA 2: B3 RNA 2 with C43A, U48C, U49A, A51C
B26: target 1 A1C,U11C (mixed)
RNA 1: B1 RNA 1
RNA 2: B3 RNA 2 with U41C, C43A, U48C, A51C
B27: target 1 C7A,G13A (mixed)
RNA 1: B1 RNA 1
RNA 2: B3 RNA 2 with G39A, C43A, C45A, U48C
B28: target 1 U3G,G12A (mixed)
RNA 1: B1 RNA 1
RNA 2: B3 RNA 2 with G40A, C43A, U48C, U49G
B29: target 1 C7U,G15A (mixed)
RNA 1: B1 RNA 1
RNA 2: B3 RNA 2 with G37A, C43A, C45U, U48C
B30: target 1 insG 3' of 16,insA 3' of 3 (mixed)
RNA 1: B1 RNA 1
RNA 2: B1 RNA 2 with U38G, G46C, C48G, G49C, C50U, U51A
B31: target 1 insG 3' of 22,insG 3' of 9 (mixed)
RNA 1: B1 RNA 1
RNA 2: B6 RNA 2 with A31G, C41G, G42U, U44A, A45G
B32: target 1 insU 3' of 7,insG 3' of 3 (mixed)
RNA 1: B1 RNA 1
RNA 2: B21 RNA 2 with G45C, C46U, A50U, U51G
B33: target 1 insC 3' of 10,insA 3' of 8 (mixed)
RNA 1: B1 RNA 1
RNA 2: B1 RNA 2 with U38A, A39G, G41U, U43C, G46A

The target in the data set is T1, EsCas13d, nuclease-dead. Kind of data set: crRNA (strand 1, pre-loaded); Mg2+; 40 mM Tris-HCl pH 7.5, 150 mM NaCl, 6 mM MgCl2, 1 mM DTT, 0.1% Tween-20, 0.2 mg/ml BSA; 25 C; 10 min per concentration, then washed. The note with it: tags: His6-TwinStrep-SUMO cleaved; N-terminal SNAP kept (SNAP-Surface 488); label: 3' end held by stalled T7 RNA polymerase.
The Kd is the concentration at which binding is half-saturated. A high value points to lower affinity. Regarding B1, binding was characterised by a dissociation constant (Kd) of 18.3 ± 1.7 nM. Regarding B2, the Kd was approximately 70 nM. Then B3, with 26 ± 4 nM; and B4, with 20.9 ± 1.9 nM.

With B5, the affinity, expressed as Kd, was 32.7 ± 2.9 nM. With B6, the Kd amounted to 22 ± 1.3 nM. As to B7, the dissociation constant Kd is 47 ± 11 nM. B8 had a Kd of 16.6 ± 1.1 nM.

B9 showed a Kd of 9.3 ± 1 nM. This Kd is about 1.8-fold lower than that of the molecule before. For the molecule B10, the affinity, expressed as Kd, was 42 ± 8 nM.

In the case of B11, the Kd was 15 ± 1.3 nM. Then B12, with 17 ± 2.6 nM. Then B13, with 8.9 ± 0.6 nM; and B14, with 42 ± 10 nM; and B15, with 20.5 ± 0.8 nM. B16 yielded a Kd of 12.6 ± 0.9 nM. The molecule B17 yielded a Kd of 16 ± 1.3 nM. This Kd and that of the molecule before are within 1.5-fold of each other.

As for B18, binding was put at a Kd of 36 ± 12 nM. Under B19 stands 18.5 ± 1.9 nM; under B20, 4.49 ± 0.17 nM.

Regarding B21, the Kd was found to be 12 ± 0.7 nM. Then B22, with 34.9 ± 3 nM; and B23, with 91 ± 34 nM. As for B24, the Kd is 18.2 ± 0.7 nM. Then B25, with 37 ± 7 nM.

Molecule B26 gave a Kd of 22 ± 4 nM. The molecule B27 yielded a Kd of 10.8 ± 0.7 nM. B28 registered a Kd of 4 ± 0.5 nM. Under B29 stands 9.8 ± 0.6 nM.

In turn, B30 yielded a Kd of 17.7 ± 1.2 nM. Under B31 stands 28.2 ± 1.8 nM.

Turning to B32, the Kd turned out to be 5.45 ± 0.31 nM. B33 yielded a Kd of 18.8 ± 0.8 nM.

The values are drawn from article PMC10786891, “Massively parallel profiling of RNA-targeting CRISPR-Cas13d”.
